Legend:
Type in all cases: biochemical
factor X = biological target: T1, factor X (Homo sapiens, UniProt P00742); assay: Activation of factor X by factor IXa proteins in the presence of only Ca2+ and PL (absence of factor VIIIa); conditions: 20 nM factor IXa; for kcat: 5 mM CaCl2, absence of factor VIIIa; for Km: 5 mM CaCl2, factor X 25 nM to 3 μM, absence of factor VIIIa
T1 construct: Normal plasma factor IX (IXNP) and factor X was isolated as previously described; from tissue; host or cells: normal plasma
T1 sequence (P00742 183-488 limits assumed): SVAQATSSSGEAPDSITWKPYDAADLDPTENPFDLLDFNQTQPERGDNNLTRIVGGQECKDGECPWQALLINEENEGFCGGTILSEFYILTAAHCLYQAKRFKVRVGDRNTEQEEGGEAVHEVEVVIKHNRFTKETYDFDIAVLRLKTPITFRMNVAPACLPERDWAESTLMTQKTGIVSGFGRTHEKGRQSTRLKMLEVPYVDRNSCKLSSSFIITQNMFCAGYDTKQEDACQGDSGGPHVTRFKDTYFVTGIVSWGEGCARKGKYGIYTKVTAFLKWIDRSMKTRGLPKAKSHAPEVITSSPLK
T1 sequence (P00742 41-179 limits assumed): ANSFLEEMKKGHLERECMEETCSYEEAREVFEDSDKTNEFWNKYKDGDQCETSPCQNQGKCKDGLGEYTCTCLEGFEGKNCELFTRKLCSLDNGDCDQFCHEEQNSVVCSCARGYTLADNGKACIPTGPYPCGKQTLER
Description: Activation of Factor X by Each Factor IXa Protein in the Presence of Only Ca^2+ and PL.
For these studies, each factor IX was activated with factor XIa/Ca^2+ as described above. For factor X activation studies, the concentration of factor IXa was kept at 20 nM and the buffer used was TBS/BSA (TBS with […] BSA) containing 5 mM CaCl2. The concentrations of PL used were 10, 25, 50, and 100 μM in different sets of experiments. The concentration of factor X at each PL concentration ranged from 25 nM to 3 μM. The activations were carried out for 5-15 min and the amount of factor Xa generated was measured by hydrolysis of S-2222 as described previously (Mather and Bajaj, 1999; Mather et al., 1997). The Km and kcat values were obtained using the program GraFit from Erithacus Software.

[1] = biological target: T2, A2 subunit of factor VIIIa (Homo sapiens, UniProt P00451); assay: EC50 (functional Kd) of interaction of factor IXa proteins with A2 subunit, factor Xa generation (S-2222); conditions: 5 nM factor IXa, 250 nM factor X, 25 μM PL, 5 mM CaCl2 (FIG. 1)
T2 construct: cleaved by thrombin at R372-S373, R740-S741, and R1689-S1690 to yield factor VIIIa
T2 sequence (P00451 392-759): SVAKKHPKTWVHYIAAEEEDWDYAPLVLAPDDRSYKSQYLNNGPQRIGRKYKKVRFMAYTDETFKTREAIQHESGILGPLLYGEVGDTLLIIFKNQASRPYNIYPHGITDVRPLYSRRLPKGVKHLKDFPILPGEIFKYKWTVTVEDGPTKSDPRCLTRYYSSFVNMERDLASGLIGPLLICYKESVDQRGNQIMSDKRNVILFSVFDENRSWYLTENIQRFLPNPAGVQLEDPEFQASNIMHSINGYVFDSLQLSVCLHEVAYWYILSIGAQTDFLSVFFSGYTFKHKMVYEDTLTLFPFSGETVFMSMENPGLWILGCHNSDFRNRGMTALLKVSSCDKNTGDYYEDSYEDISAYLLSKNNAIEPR
Description: Determination of EC50 of Interaction of Factor IXa Proteins with A2 Subunit.
The EC50 (functional Kd) of binding of each factor IXa protein with A2 subunit was measured essentially as described previously for its interaction with intact factor VIIIa (Mather and Bajaj, 1999; Mather et al., 1997). For these experiments, concentrations of factor IXa and factor X were kept constant, and the rates of formation of factor Xa were determined at increasing concentrations of A2 subunit. Reaction mixtures contained 5 nM IXa protein, 250 nM factor X, 25 μM PL and various concentrations of A2 subunit in TBS/BSA, pH 7.5 containing 5 mM CaCl2. Reactions were carried out at 37° C. for 5-20 minutes and stopped by adding 1 μL of 500 mM EDTA. The amount of factor Xa generated was determined by S-2222 hydrolysis as described previously (Mather and Bajaj, 1999; Mather et al., 1997). The EC50 was obtained by fitting the data to a single site ligand binding equation (Eq. 1) by non-linear regression analysis using the program GraFit from Erithacus Software. [formula]
Where V is the rate of formation of factor Xa at a given concentration of the A2 subunit, denoted by L, and Vmax is the rate of factor Xa formation by the factor IXa:A2 subunit complex. EC50 is the functional Kd defined as the concentration of free A2 subunit yielding 50% of the Vmax. The background rate of factor Xa generation was obtained by carrying out the reaction in the absence of the A2 subunit.

A2 558-565 peptide = biological target: T3, A2 558-565 peptide (Homo sapiens, UniProt P00451); assay: Apparent Kdpeptide of binding of each factor IXa to the A2 558-565 peptide; conditions: for Kd: values from FIG. 5, A2 558-565 peptide, read-out: App Kdpeptide; for ΔG°peptide: ΔG° = RTlnKd, 298 Kelvin
T3 construct: made in house; host or cells: chemical synthesis (synthetic peptide)
Description: Determination of the Apparent Kdpeptide of Binding of Each Factor IXa to the A2 558-565 Peptide.
The apparent Kd (termed Kdpeptide) for binding of each factor IXa to the A2 558-565 peptide was determined by its ability to inhibit the respective IXa:A2 subunit interaction as measured by reduction in the rate of factor X activation in the tenase system. The reaction mixtures for both IXaWT and IXaPCEGF1 contained 100 nM factor IXa, 30 nM A2 subunit, 250 nM factor X, and 25 μM PL in TBS/BSA, pH 7.5 with 5 mM CaCl2. The reaction mixture for IXaR333Q contained 300 nM factor IXa instead of 100 nM used for IXaWT or IXaPCEGF1; concentrations of other components were the same. The amount of factor Xa generated was determined by hydrolysis of S-2222. The IC50 values were obtained using Eq. 2. Here, y is the rate of factor Xa formation in the presence of a given concentration of the A2 558-565 peptide represented by x, and a is the maximum rate of factor Xa formation in the absence of the A2 peptide. Eq. 3 was then used to obtain the apparent Kdpeptide values. In this context, A is the concentration of IXaWT, IXaPCEGF1, or IXaR333Q, and EC50 is the apparent KdA2 for the respective IXa:A2 subunit interaction.

Substance | kcat (factor X; PL 10 μM) [s⁻¹] | Km (factor X; PL 10 μM) [µM] | kcat (factor X; PL 25 μM) [s⁻¹] | Km (factor X; PL 25 μM) [µM] | kcat (factor X; PL 50 μM) [s⁻¹] | Km (factor X; PL 50 μM) [µM] | kcat (factor X; PL 100 μM) [s⁻¹] | Km (factor X; PL 100 μM) [µM] | EC50 ([1]; read-out: EC50 (functional Kd), apparent Kd of interaction with the A2 subunit, single site-binding model) [µM] | Kd (A2 558-565 peptide) [µM] | ΔG°peptide (A2 558-565 peptide) [kcal/mol] | Ability of the A2 subunit to enhance/potentiate the factor X-activating activity of the IXa protein [1] | EC50 (functional Kd), apparent Kd of interaction with the A2 subunit, single site-binding model [1] | Change in ΔG°peptide between the mutant and WT (A2 558-565 peptide) [kcal/mol] | Fold-change in apparent Kdpeptide (mutant/WT) (A2 558-565 peptide)
IXaWT: activated recombinant wild-type factor IX (IXWT) | 0.000167 | 0.09 | 0.0002 | 0.12 | 0.0004 | 0.24 | 0.000633 | 0.57 | 0.257 ± 0.031 | 4 ± 1 | 7.36 |  |  |  | 
IXaR333Q: activated factor IX point mutant in which Arg333 is replaced by Gln | 0.0002 | 0.11 | 0.0003 | 0.18 | 0.0005 | 0.23 | 0.000667 | 0.61 |  | 62 ± 9 | 5.74 | severely impaired | could not be calculated | 1.62 | ~15
